Assay [1] concerns the target recombinant human amelogenin (AmH) (human). Put plainly: cryo-TEM of self-assembly; protein stock (10 mg/mL, pH 3.5) diluted 10 times with 4 mM PBS (pH 7.4 in the methods, pH 8.0 in the results); 10 min assembly reaction, plunge-frozen.
The target in assay [2] is S. mutans surface protein antigen I/II (Ag I/II), proline repeat working fragment (Streptococcus mutans UA159). The description is as above.

“And” between values parts separate entries of the source, which are not always exact repeats. Equal values may be shown once.

The values that follow come from paper PMC9789152.

As usually defined, the stoichiometry N is a count of units in the complex or per binding partner.

Regarding “recombinant human amelogenin (AmH) (natural protein)”, the stoichiometry N in assay [1] is 6 monomers and 8 monomers.
“S. mutans surface protein antigen I/II (Ag I/II), proline repeat working fragment (domain or fragment)”: in assay [2], the stoichiometry N is 6 monomers and 10 monomers.
